# Experimental data from IntAct's records for PubMed 18571510.
# B1: Regulatory protein NPR1 (Arabidopsis thaliana (Mouse-ear cress)), P93002 (parent)
# chain: MDTTIDGFADSYEISSTSFVATDNTDSSIVYLAAEQVLTGPDVSALQLLSNSFESVFDSPDDFYSDAKLVLSDGREVSFHRCVLSARSSFFKSALAAAKKEKDSNNTAAVKLELKEIAKDYEVGFDSVVTVLAYVYSSRVRPPPKGVSECADENCCHVACRPAVDFMLEVLYLAFIFKIPELITLYQRHLLDVVDKVVIEDTLVILKLANICGKACMKLLDRCKEIIVKSNVDMVSLEKSLPEELVKEIIDRRKELGLEVPKVKKHVSNVHKALDSDDIELVKLLLKEDHTNLDDACALHFAVAYCNVKTATDLLKLDLADVNHRNPRGYTVLHVAAMRKEPQLILSLLEKGASASEATLEGRTALMIAKQATMAVECNNIPEQCKHSLKGRLCVEILEQEDKREQIPRDVPPSFAVAADELKMTLLDLENRVALAQRLFPTEAQAAMEIAEMKGTCEFIVTSLEPDRLTGTKRTSPGVKIAPFRILEEHQSRLKALSKTVELGKRFFPRCSAVLDQIMNCEDLTQLACGEDDTAEKRLQKKQRYMEIQETLKKAFSEDNLELGNSSLTDSTSSTSKSTGGKRSNRKLSHRRR
# partner: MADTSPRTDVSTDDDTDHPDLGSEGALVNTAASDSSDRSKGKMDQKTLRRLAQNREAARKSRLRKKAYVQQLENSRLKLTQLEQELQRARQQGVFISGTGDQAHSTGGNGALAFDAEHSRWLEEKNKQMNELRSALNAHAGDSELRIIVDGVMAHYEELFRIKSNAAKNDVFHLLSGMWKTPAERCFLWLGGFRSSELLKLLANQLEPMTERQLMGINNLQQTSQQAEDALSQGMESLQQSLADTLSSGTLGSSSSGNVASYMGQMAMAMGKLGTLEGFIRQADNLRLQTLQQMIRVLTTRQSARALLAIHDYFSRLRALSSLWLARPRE
# Variants of: B1
# Conditions: with tga2_arath TGA2, P43273
row,Variant,effect of a mutation on the interaction
1,C150Y,disrupting interaction
